Assay results taken from patent US20250382353A1 (published 2025).

Biological target: SARS-CoV-2 D614G spike (SARS-CoV-2, UniProt P0DTC2 14-1208)
Assay: SPR

Binder	Kd [nM]
1C3 antigen-binding fragment (Fab) (Fab, V domains shown) VH: QVQLLESGGGLVQPGRSLRLSCAASGFTFDDYAMHWVRQPPGKGLEWVSGSSWNSGSVVYADSVKGRFTISRDSAKNSLHLQMNSLRVEDTALYYCAKAVDPTRGSYSPDYGFDIWGQGTMVTVS VL: not shown	0.043
Fab 2A10 (antibody, V domains shown) VH: QVQLVESGGGLIQPGGSLRLSCAASEFIVSSNYMSWVRQAPGKGLEWVSLLYSGGTTYYADSVKGRFTISRDNSKNTLFLQMNSLRAEDTAMYYCARDRGPWLHDYWGQGTLVTVS VL: DIVMTQSPSSLSASVGDRVTITCQASQDINKYCNWYQQKPGKAPKLLIYDASNLETGVPSRFSGSGSGTDFTFTINSLQPEDIATYYCQQYDNLPPTFGGGTKVEIK	0.161
